{
  "source": "paper PMC11615309",
  "about": "(Nature Communications, 2024)",
  "binders": {"B1": {"name": "GST-OLFM4 (OLFM4 without signal peptide) (domain or fragment)", "chain": "not shown"}},
  "biological_target": "T1, 6xHis-tagged FAT1 cadherin #28-33 (3024-3789 aa) (UniProt Q14517 3024-3789)",
  "T1 sequence": "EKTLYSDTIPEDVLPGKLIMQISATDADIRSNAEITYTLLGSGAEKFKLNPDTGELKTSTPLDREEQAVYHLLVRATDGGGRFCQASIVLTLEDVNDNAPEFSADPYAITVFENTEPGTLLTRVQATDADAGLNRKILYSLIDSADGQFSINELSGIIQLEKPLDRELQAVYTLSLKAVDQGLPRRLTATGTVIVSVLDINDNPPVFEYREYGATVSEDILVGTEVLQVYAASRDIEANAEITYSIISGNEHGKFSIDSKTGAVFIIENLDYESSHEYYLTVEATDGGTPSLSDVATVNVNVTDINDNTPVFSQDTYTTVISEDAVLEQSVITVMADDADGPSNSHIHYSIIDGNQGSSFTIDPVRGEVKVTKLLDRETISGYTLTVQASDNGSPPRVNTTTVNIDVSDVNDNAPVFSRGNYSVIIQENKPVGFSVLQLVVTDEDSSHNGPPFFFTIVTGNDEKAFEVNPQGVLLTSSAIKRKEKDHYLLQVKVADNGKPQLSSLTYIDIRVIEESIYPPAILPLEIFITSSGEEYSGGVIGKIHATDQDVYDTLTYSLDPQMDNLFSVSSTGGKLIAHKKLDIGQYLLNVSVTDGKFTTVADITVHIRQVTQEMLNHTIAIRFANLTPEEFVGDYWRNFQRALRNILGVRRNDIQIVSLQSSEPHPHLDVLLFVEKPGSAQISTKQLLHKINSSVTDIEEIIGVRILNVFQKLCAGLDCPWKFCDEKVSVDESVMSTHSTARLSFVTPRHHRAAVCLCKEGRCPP",
  "assay": "pull-down",
  "data": [
    {"binder": "B1", "values": [
      {"measurement": "binding result", "value": "binds"}
    ]}
  ]
}
